# Measurements published in article PMC2916698 (Journal of cellular physiology, 2010).
# Assays:
# Assay in all cases: two-hybrid
# [1] = target: T1, Gal4-RXRα AF-1 (first 135 amino acids of human RXRα) (human, UniProt P19793 1-135)
# T1 sequence (looked up): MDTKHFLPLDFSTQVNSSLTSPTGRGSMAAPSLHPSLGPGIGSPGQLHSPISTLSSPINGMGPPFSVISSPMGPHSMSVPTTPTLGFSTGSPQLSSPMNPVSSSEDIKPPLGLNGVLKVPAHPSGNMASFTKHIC
# [2] = target: Gal4-SRC-1 (Steroid Receptor Coactivator-1) (UniProt Q15788 1-1441)
# [3] = target: T2, Gal4-mouse RXRα ligand binding domain (LBD) (mouse, UniProt P28700 232-467)
# T2 sequence (looked up): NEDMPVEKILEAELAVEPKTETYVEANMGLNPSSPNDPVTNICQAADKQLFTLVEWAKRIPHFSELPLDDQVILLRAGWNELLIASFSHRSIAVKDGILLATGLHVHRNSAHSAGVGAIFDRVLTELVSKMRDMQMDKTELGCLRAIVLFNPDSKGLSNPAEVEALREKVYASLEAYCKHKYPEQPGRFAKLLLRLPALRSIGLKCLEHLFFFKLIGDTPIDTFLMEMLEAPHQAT
# Chain of Gal4-SRC-1 (Steroid Receptor Coactivator-1) (Q15788 whole entry, the tested form may be a part): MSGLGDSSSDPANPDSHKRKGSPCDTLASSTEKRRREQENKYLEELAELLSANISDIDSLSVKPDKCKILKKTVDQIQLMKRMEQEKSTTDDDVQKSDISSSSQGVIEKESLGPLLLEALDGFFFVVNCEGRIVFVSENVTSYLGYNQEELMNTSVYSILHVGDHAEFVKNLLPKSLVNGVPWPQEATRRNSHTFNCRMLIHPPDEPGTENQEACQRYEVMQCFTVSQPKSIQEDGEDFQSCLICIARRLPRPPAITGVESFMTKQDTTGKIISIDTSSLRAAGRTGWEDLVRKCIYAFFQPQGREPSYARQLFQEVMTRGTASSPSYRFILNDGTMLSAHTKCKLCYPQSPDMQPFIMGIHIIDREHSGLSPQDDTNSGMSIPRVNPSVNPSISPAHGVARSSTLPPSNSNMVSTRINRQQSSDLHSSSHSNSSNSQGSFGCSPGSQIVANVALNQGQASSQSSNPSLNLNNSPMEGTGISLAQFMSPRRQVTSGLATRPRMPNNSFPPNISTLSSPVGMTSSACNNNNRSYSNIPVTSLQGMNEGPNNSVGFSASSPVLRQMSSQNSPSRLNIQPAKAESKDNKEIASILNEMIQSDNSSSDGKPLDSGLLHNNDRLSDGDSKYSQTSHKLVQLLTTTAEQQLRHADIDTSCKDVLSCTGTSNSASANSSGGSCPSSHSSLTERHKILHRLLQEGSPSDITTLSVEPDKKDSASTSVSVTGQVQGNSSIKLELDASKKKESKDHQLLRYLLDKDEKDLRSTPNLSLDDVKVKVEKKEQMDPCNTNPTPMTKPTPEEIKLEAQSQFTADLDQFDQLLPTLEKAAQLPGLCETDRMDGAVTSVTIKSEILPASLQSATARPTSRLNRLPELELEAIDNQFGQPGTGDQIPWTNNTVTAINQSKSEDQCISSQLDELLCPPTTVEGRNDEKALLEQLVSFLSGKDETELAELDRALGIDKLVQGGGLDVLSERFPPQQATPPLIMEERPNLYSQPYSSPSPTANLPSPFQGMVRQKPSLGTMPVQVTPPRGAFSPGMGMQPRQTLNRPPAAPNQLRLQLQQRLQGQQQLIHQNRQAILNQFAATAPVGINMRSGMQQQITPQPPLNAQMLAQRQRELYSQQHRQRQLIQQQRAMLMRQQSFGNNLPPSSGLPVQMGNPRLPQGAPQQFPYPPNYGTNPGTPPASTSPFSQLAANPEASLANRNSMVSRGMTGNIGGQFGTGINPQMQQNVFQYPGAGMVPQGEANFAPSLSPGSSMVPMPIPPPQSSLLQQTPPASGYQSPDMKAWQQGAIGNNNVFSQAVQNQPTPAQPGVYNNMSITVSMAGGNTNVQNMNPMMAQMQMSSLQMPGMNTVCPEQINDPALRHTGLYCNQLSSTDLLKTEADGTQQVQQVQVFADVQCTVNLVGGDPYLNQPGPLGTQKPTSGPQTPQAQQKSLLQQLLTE
binder,measurement,setting,value
VP16-SRC-1 (natural protein) not shown,"two-hybrid signal above the empty GAL4 vector control, RWPE1 cells",[1],8.2 fold
"VP16-mouse RXRα-LBD (domain or fragment, UniProt P28700 232-467, looked up) NEDMPVEKILEAELAVEPKTETYVEANMGLNPSSPNDPVTNICQAADKQLFTLVEWAKRIPHFSELPLDDQVILLRAGWNELLIASFSHRSIAVKDGILLATGLHVHRNSAHSAGVGAIFDRVLTELVSKMRDMQMDKTELGCLRAIVLFNPDSKGLSNPAEVEALREKVYASLEAYCKHKYPEQPGRFAKLLLRLPALRSIGLKCLEHLFFFKLIGDTPIDTFLMEMLEAPHQAT","fold induction of the two-hybrid signal by 1,25(OH)2D3, RWPE1 cells",[2],2.6 fold
"VP16-rat VDR-LBD (domain or fragment, UniProt P13053 127-423, looked up) EQQHIIAILLDAHHKTYDPTYADFRDFRPPVRMDGSTGSYSPRPTLSFSGNSSSSSSDLYTTSLDMMEPSGFSNLDLNGEDSDDPSVTLDLSPLSMLPHLADLVSYSIQKVIGFAKMIPGFRDLTSDDQIVLLKSSAIEVIMLRSNQSFTMDDMSWDCGSQDYKYDVTDVSKAGHTLELIEPLIKFQVGLKKLNLHEEEHVLLMAICIVSPDRPGVQDAKLVEAIQDRLSNTLQTYIRCRHPPPGSHQLYAKMIQKLADLRSLNEEHSKQYRSLSFQPENSMKLTPLVLEVFGNEIS","fold induction of the two-hybrid signal by 1,25(OH)2D3, RWPE1 cells",[3],111 fold
same,"fold induction of the two-hybrid signal by 1,25(OH)2D3, RWPE2 cells",[3],178 fold
same,"fold induction of the two-hybrid signal by 1,25(OH)2D3, RWPE2 cells",[2],10.4 fold
